Laboratory results from patent publication US10774129B2, “Complexes of types of MHC class II that bind to collagen type II peptides and their use on diagnosis and treatment” (FRAUNHOFER-GESELLSCHAFT ZUR FÖRDERUNG DER ANGEWANDTEN …, priority 2011, dated 2020).
Square brackets hold non-standard residues; d marks the D form. Ends that are not written are not given here. Cit = NC(=O)NCCC[C@H](N)C(=O)O

Experiments:
Experiment in all cases: in vitro binding assay to recombinant MHC class II protein
[1] = biological target: MHC class II of the HLA DRB1 0101 genotype (Homo sapiens, UniProt P01903+P01911, A100R/D57E/F55L/F60I/F76Y/I96L/L162R/M171V/P40L/Q125E/R42F/V115G/Y59C); parameters: key: *0101: the listing of the allele in the column for the allele indicates binding; *0401: “0401” in the “Binds to 0401” column indicates binding of the peptide to MHC class II of the HLA DRB1 0401 genotype; *0404: the listing of the allele in the column for the allele indicates binding; *0405: the listing of the allele in the column for the allele indicates binding; *0408: the listing of the allele in the column for the allele indicates binding; *1001: the listing of the allele in the column for the allele indicates binding; “no” or no data indicates no binding to a protein of that genotype
From the text: (§1) Binding of the peptides to recombinant MHC class II protein of various alleles has been confirmed in an in vitro binding assay and the results are shown in Tables 1, 2 and 3. In table 1, 2 and 3, the listing of the allele in the column for the allele indicates binding. Thus “0401” in the “Binds to 0401” column indicates binding of the peptide to MHC class II of the HLA DRB1 0401 genotype. “no” or no data indicates no binding to a protein of that genotype. Empty boxes indicate no binding or that binding has not been determined. In the tables it is also indicated if the peptide has a citrulline residue, where “yes” indicates the presence of a citrulline residue and “no” indicates the absence of a citrulline residue.

[2] = biological target: MHC class II of the HLA DRB1 0401 genotype (Homo sapiens, UniProt P01903+P01911, A100K/A169T/F76Y/I96L/K127E/L162R/M171V/N62H/P40V/Q125Y/R42H/S133A/S149N/S66Y/V115G/V209L/W38E); parameters: key to Binds to 0401: *0101: the listing of the allele in the column for the allele indicates binding; *0401: “0401” in the “Binds to 0401” column indicates binding of the peptide to MHC class II of the HLA DRB1 0401 genotype; *0404: the listing of the allele in the column for the allele indicates binding; *0405: the listing of the allele in the column for the allele indicates binding; *0408: the listing of the allele in the column for the allele indicates binding; *1001: the listing of the allele in the column for the allele indicates binding; “no” or no data indicates no binding to a protein of that genotype; conditions: recombinant MHC class II, HLA DRB1 0401
From the text: as §1
Thus for these peptides no binding to HLA-DR0401 was observed when citrulline was exchanged with the original amino acid arginine (Table 4). No binding of the citrullinated peptides was seen to HLA-DR 03 or 02 variants.

[3] = biological target: MHC class II of the HLA DRB1 0404 genotype (Homo sapiens, UniProt P01903+P01911, A100R/A169T/F76Y/I96L/K127E/L162R/M171V/N62H/P40V/Q125Y/R42H/S133A/S149N/S66Y/V209L/W38E); parameters: key: *0101: the listing of the allele in the column for the allele indicates binding; *0401: “0401” in the “Binds to 0401” column indicates binding of the peptide to MHC class II of the HLA DRB1 0401 genotype; *0404: the listing of the allele in the column for the allele indicates binding; *0405: the listing of the allele in the column for the allele indicates binding; *0408: the listing of the allele in the column for the allele indicates binding; *1001: the listing of the allele in the column for the allele indicates binding; “no” or no data indicates no binding to a protein of that genotype
From the text: as §1

[4] = biological target: MHC class II of the HLA DRB1 0405 genotype (Homo sapiens, UniProt P01903+P01911, A100R/A169T/D86S/F76Y/I96L/K127E/L162R/M171V/N62H/P40V/Q125Y/R42H/S133A/S149N/S66Y/V115G/V209L/W38E); parameters: key: *0101: the listing of the allele in the column for the allele indicates binding; *0401: “0401” in the “Binds to 0401” column indicates binding of the peptide to MHC class II of the HLA DRB1 0401 genotype; *0404: the listing of the allele in the column for the allele indicates binding; *0405: the listing of the allele in the column for the allele indicates binding; *0408: the listing of the allele in the column for the allele indicates binding; *1001: the listing of the allele in the column for the allele indicates binding; “no” or no data indicates no binding to a protein of that genotype
From the text: as §1

Binds to 0101 [1] | Binds to 0401 [2] | Binds to 0404 [3] | Binds to 0405 [4] | Substance
*0101 | *0401 |  |  | type II collagen 138: human collagen type II peptide, not citrullinated (AGFKGEQGPKGEPGP; listed as Homo sapiens)
 | *0401 |  |  | vimentin 59: human vimentin peptide, not citrullinated (YKSKFADLSEAANRN; listed as Homo sapiens)
 | *0401 |  |  | vimentin 71: human vimentin peptide, not citrullinated (FAVEAANYQDTIGRL; listed as Homo sapiens)
*0101 |  | no |  | vimentin 27: human vimentin peptide, not citrullinated (LLAELEQLKGQGKSR; listed as Homo sapiens)
 |  | *0404 |  | vimentin 92: human vimentin peptide, not citrullinated (GQVINETSQHHDDLE; listed as Homo sapiens)
*0101 | *0401 | no |  | vimentin 42: human vimentin peptide, not citrullinated (FRQDVDNASLARLDL; listed as Homo sapiens)
*0101 | no | *0404 |  | vimentin 79: human vimentin peptide, not citrullinated (MALDIEIATYRKLLE; listed as Homo sapiens)
*0101 |  | *0404 |  | vimentin 32: human vimentin peptide, not citrullinated (ELRRQVDQLTNDKAR; listed as Homo sapiens)
 |  | *0404 |  | type II collagen 224: human collagen type II peptide, not citrullinated (GPPGATGFPGAAGRV; listed as Homo sapiens)
*0101 | *0401 |  |  | vimentin 99: citrullinated human vimentin peptide (VTTST[Cit]TYSLGSAL[Cit]; listed as Homo sapiens)
 | *0401 |  |  | vimentin 145: citrullinated human vimentin peptide (STEY[Cit][Cit]QVQSLTCEV; listed as Homo sapiens)
 | *0401 | *0404 | *0405 | type II collagen 411: citrullinated human collagen type II peptide (GIVGLPGQ[Cit]GE[Cit]GFP; listed as Homo sapiens)
 |  | *0404 |  | type II collagen 166: human collagen type II peptide, not citrullinated (VMGFPGPKGANGEPG; listed as Homo sapiens)
 |  | *0404 |  | type II collagen 257: human collagen type II peptide, not citrullinated (GDRGETGAVGAPGAP; listed as Homo sapiens)
 | *0401 | *0404 | *0405 | type II collagen 332: citrullinated human collagen type II peptide ([Cit]GPPGPQGA[Cit]GFPGT; listed as Homo sapiens)
 |  | *0404 |  | type II collagen 100: human collagen type II peptide, not citrullinated (PQGARGFPGTPGLPG; listed as Homo sapiens)
*0101 | *0401 | *0404 |  | type II collagen 137: human collagen type II peptide, not citrullinated (GEPGIAGFKGEQGPK; listed as Homo sapiens)

Binds to 0101 [1] | Binds to 0401 [2] | Binds to 0404 [3] | Binds to 0405 [4] | Substance
no | *0401 | *0404 |  | vimentin 93: citrullinated human vimentin peptide (MST[Cit]SVSSSSY[Cit][Cit]MF; listed as Homo sapiens)
*0101 |  |  |  | vimentin 132: citrullinated human vimentin peptide (F[Cit]QDVDNASLA[Cit]LDL; listed as Homo sapiens)
 | *0401 |  | *0405 | vimentin 98: citrullinated human vimentin peptide (SS[Cit]SYVTTST[Cit]TYSL; listed as Homo sapiens)
 | *0401 |  |  | vimentin 20: human vimentin peptide, not citrullinated (FKNTRTNEKVELQEL; listed as Homo sapiens)
 | *0401 |  |  | vimentin 150: citrullinated human vimentin peptide (FAVEAANYQDTIG[Cit]L; listed as Homo sapiens)
*0101 | *0401 |  |  | vimentin 95: citrullinated human vimentin peptide (Y[Cit][Cit]MFGGPGTAS[Cit]PS; listed as Homo sapiens)
no | *0401 |  |  | vimentin 16: human vimentin peptide, not citrullinated (GVRLLQDSVDFSLAD; listed as Homo sapiens)
*0101 | no |  |  | vimentin 13: human vimentin peptide, not citrullinated (YATRSSAVRLRSSVP; listed as Homo sapiens)
 |  |  | *0405 | type II collagen 178: human collagen type II peptide, not citrullinated (PSGFQGLPGPPGPPG; listed as Homo sapiens)
 | *0401 | No |  | vimentin 159: citrullinated human vimentin peptide (XKLLEGEESXISLPL; citrullinated; MOD_RES (1)..(1) Citrulline; MOD_RES (10)..(10) Citrulline; listed as Homo sapiens)
*0101 | *0401 |  |  | vimentin 55: human vimentin peptide, not citrullinated (DVRQQYESVAAKNLQ; listed as Homo sapiens)
*0101 |  |  |  | vimentin 156: citrullinated human vimentin peptide (XEYQDLLNVKMALDI; citrullinated; MOD_RES (1)..(1) Citrulline; listed as Homo sapiens)
 |  | *0404 |  | vimentin 14: human vimentin peptide, not citrullinated (SAVRLRSSVPGVRLL; listed as Homo sapiens)
 |  |  | *0405 | type II collagen 272: human collagen type II peptide, not citrullinated (GHRGFTGLQGLPGPP; listed as Homo sapiens)
 |  | *0404 |  | vimentin 44: human vimentin peptide, not citrullinated (ARLDLERKVESLQEE; listed as Homo sapiens)
 | *0401 | *0404 |  | type II collagen 195: human collagen type II peptide, not citrullinated (PGLQGMPGERGAAGI; listed as Homo sapiens)
